Source: IntAct's records for PubMed 30285739

B1: WW domain-containing oxidoreductase (Homo sapiens), Q9NZC7 (parent)
chain: MAALRYAGLDDTDSEDELPPGWEERTTKDGWVYYANHTEEKTQWEHPKTGKRKRVAGDLPYGWEQETDENGQVFFVDHINKRTTYLDPRLAFTVDDNPTKPTTRQRYDGSTTAMEILQGRDFTGKVVVVTGANSGIGFETAKSFALHGAHVILACRNMARASEAVSRILEEWHKAKVEAMTLDLALLRSVQHFAEAFKAKNVPLHVLVCNAATFALPWSLTKDGLETTFQVNHLGHFYLVQLLQDVLCRSAPARVIVVSSESHRFTDINDSLGKLDFSRLSPTKNDYWAMLAYNRSKLCNILFSNELHRRLSPRGVTSNAVHPGNMMYSNIHRSWWVYTLLFTLARPFTKSMQQGAATTVYCAAVPELEGLGGMYFNNCCRCMPSPEAQSEETARTLWALSERLIQERLGSQSG
partner: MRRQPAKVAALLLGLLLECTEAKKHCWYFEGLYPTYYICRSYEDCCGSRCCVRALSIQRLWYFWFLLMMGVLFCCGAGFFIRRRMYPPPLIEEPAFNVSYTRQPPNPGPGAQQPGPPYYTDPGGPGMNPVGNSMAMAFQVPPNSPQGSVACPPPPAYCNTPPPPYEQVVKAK
B2: WW domain binding protein VOPP1 (Homo sapiens), Q96AW1 (parent)
chain: B1 partner
partner: B1 chain

Variants of: B1
Conditions: with vopp1_human VOPP1, Q96AW1

effect of a mutation on the interaction	Variant
disrupting interaction strength	MAALRYAGLDDTDSEDELPPGWEERTTKDGWVRYANHTEEKTQWEHPKTGKRKRVAGDLPYGWEQETDENGQVFFVDHINKRTTYLDPRLAFTVDDNPTKPTTRQRYDGSTTAMEILQGRDFTGKVVVVTGANSGIGFETAKSFALHGAHVILACRNMARASEAVSRILEEWHKAKVEAMTLDLALLRSVQHFAEAFKAKNVPLHVLVCNAATFALPWSLTKDGLETTFQVNHLGHFYLVQLLQDVLCRSAPARVIVVSSESHRFTDINDSLGKLDFSRLSPTKNDYWAMLAYNRSKLCNILFSNELHRRLSPRGVTSNAVHPGNMMYSNIHRSWWVYTLLFTLARPFTKSMQQGAATTVYCAAVPELEGLGGMYFNNCCRCMPSPEAQSEETARTLWALSERLIQERLGSQSG [Y33R]

Variants of: B2
Conditions: with wwox_human WWOX, Q9NZC7

effect of a mutation on the interaction	Variant
decreasing interaction strength	MRRQPAKVAALLLGLLLECTEAKKHCWYFEGLYPTYYICRSYEDCCGSRCCVRALSIQRLWYFWFLLMMGVLFCCGAGFFIRRRMYPPPLIEEPAFNVSYTRQPPNPGPGAQQPGPPYYTDPGGPGMNPVGNSMAMAFQVPPNSPQGSVACPPPPAYCNTPPPPAEQVVKAK [Y165A]
decreasing interaction strength	MRRQPAKVAALLLGLLLECTEAKKHCWYFEGLYPTYYICRSYEDCCGSRCCVRALSIQRLWYFWFLLMMGVLFCCGAGFFIRRRMYPPPLIEEPAFNVSYTRQPPNPGPGAQQPGPPYYTDPGGPGMNPVGNSMAMAFQVPPNSPQGSVACPPPPAACNTPPPPYEQVVKAK [Y157A]
with no effect	MRRQPAKVAALLLGLLLECTEAKKHCWYFEGLYPTYYICRSYEDCCGSRCCVRALSIQRLWYFWFLLMMGVLFCCGAGFFIRRRMYPPPLIEEPAFNVSYTRQPPNPGPGAQQPGPPYATDPGGPGMNPVGNSMAMAFQVPPNSPQGSVACPPPPAYCNTPPPPYEQVVKAK [Y119A]

Variants of: B2
Conditions: with wwox_human WWOX

effect of a mutation on the interaction	Variant
disrupting interaction strength	MRRQPAKVAALLLGLLLECTEAKKHCWYFEGLYPTYYICRSYEDCCGSRCCVRALSIQRLWYFWFLLMMGVLFCCGAGFFIRRRMYPPPLIEEPAFNVSYTRQPPNPGPGAQQPGPPYYTDPGGPGMNPVGNSMAMAFQVPPNSPQGSVACPPPPAYCNTPPPPAEQVVKAK [Y165A]
